The record followed here is US20130266568A1 (Hoffmann-La Roche, published 2013).

Substitutions are numbered along the chain they refer to. Where only a bound is given, the exact number is not on record here.

B1: Her3/MetSS_KHSS_U (protease cleavage site = uPA cleavage site), not cleaved (bispecific antibody, human IgG1, kappa)
heavy 1: not shown
heavy 2: not shown
light: DIQMTQTTSSLSASLGDRVTISCRARQDISNYLNWYQRKPDGTVKLLIYYTSRLHSGVPSRFSGSGSGTDYSLTISNLEQEDIATYFCQQGNTFPWTFGGGTKLEIKRTVAAPSVFIFPPSDEQLKSGTASVVCLLNNFYPREAKVQWKVDNALQSGNSQESVTEQDSKDSTYSLSSTLTLSKADYEKHKVYACEVTHQGLSSPVTKSFNRGEC
notes: Trivalent anti-Her3 IgG with restricted anti-cMet dsFv
B2: Her3/MetSS_KHSS_M2 (MMP 2 and 9 cleavage site - variant 2), not cleaved (bispecific antibody, human IgG1, kappa)
heavy 1: not shown
heavy 2: not shown
light: B1 light
notes: as for B1
B3: Her3/MetSS_KHSS_M2 after protease cleavage (MMP-2 processed) (bispecific antibody)
heavy 1: not shown
heavy 2: not shown
chain: LWAQSGGGGSGGGGSDIQMTQSPSSLSASVGDRVTITCKSSQSLLYTSSQKNYLAWYQQKPGKAPKLLIYWASTRESGVPSRFSGSGSGTDFTLTISSLQPEDFATYYCQQYYAYPWTFGCGTKVEIKR
light: B1 light
notes: HC2 is cut in the connector; the VL fragment stays disulfide-linked to VH
B4: Her3/MetSS_KHSS_M1 after protease cleavage (bispecific antibody)
heavy 1: not shown
heavy 2: not shown
chain: B3 chain with L1M, W2L, A3S
light: B1 light
notes: as for B3
B5: Her3/MetSS_KHSS_M3 (MMP 2 and 9 cleavage site - variant 3), not cleaved (bispecific antibody, human IgG1, kappa)
heavy 1: not shown
heavy 2: not shown
light: B1 light
notes: as for B1
B6: Her3/MetSS_KHSS_M1 (MMP 2 and 9 cleavage site - variant 1), not cleaved (bispecific antibody, human IgG1, kappa)
heavy 1: not shown
heavy 2: not shown
light: B1 light
notes: as for B1
B7: Her3/MetSS_KHSS_M3 after protease cleavage (bispecific antibody)
heavy 1: not shown
heavy 2: not shown
chain: B3 chain with L1I, W2A, A3G
light: B1 light
notes: as for B3
B8: Her3/MetSS_KHSS_PreSci (protease cleavage site = prescission cleavage site), not cleaved (restricted form) (bispecific antibody, human IgG1, kappa)
heavy 1: not shown
heavy 2: not shown
light: B1 light
notes: Trivalent: whole anti-Her3 IgG (knobs-into-holes) with one disulfide-stabilized anti-cMet Fv tethered to both CH3 C-termini; Constructs were designed with a leader peptide

T1 sequence (P08581 25-932 limits assumed): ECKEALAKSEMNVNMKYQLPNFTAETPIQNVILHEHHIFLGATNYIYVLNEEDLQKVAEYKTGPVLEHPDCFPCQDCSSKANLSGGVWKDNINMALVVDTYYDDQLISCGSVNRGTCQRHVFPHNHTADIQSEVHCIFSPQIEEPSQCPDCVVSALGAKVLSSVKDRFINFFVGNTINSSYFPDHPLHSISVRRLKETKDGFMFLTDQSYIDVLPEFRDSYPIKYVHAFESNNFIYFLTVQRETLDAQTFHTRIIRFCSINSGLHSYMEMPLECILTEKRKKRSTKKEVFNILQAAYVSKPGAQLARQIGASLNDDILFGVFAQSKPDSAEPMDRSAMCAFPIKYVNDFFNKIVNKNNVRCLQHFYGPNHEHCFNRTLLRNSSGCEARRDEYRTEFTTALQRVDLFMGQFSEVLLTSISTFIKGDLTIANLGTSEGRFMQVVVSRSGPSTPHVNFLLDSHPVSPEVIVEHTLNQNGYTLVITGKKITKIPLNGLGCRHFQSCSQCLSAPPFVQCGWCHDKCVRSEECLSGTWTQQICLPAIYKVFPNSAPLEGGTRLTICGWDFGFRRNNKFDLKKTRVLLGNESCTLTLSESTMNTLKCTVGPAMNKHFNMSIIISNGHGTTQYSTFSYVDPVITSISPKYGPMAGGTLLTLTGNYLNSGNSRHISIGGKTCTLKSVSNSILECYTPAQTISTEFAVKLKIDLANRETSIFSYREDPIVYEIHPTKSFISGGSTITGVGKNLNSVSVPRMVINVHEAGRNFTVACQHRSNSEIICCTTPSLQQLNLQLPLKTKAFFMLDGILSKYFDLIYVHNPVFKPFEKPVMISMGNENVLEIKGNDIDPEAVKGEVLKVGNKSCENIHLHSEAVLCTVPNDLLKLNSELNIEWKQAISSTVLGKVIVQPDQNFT
HER3 (antigen in the SPR measurements), sequence (P21860 20-643 limits assumed): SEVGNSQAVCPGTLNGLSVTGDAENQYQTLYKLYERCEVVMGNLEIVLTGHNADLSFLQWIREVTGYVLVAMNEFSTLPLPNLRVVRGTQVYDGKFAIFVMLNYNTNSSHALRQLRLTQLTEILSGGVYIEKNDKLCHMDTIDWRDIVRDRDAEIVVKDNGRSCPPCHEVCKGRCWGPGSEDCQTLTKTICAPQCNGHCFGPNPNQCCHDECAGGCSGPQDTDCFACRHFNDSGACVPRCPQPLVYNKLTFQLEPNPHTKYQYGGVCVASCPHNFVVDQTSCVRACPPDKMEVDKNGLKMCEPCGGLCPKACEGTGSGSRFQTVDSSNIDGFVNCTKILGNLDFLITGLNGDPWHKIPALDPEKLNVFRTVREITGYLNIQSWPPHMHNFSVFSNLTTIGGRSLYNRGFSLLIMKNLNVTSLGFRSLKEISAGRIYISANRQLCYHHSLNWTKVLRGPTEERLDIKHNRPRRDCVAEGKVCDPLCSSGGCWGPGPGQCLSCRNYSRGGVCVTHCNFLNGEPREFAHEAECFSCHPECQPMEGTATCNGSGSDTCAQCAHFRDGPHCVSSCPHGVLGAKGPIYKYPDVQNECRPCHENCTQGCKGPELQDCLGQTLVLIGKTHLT
T2 sequence (P21860 20-1342 limits assumed, stated change not applied): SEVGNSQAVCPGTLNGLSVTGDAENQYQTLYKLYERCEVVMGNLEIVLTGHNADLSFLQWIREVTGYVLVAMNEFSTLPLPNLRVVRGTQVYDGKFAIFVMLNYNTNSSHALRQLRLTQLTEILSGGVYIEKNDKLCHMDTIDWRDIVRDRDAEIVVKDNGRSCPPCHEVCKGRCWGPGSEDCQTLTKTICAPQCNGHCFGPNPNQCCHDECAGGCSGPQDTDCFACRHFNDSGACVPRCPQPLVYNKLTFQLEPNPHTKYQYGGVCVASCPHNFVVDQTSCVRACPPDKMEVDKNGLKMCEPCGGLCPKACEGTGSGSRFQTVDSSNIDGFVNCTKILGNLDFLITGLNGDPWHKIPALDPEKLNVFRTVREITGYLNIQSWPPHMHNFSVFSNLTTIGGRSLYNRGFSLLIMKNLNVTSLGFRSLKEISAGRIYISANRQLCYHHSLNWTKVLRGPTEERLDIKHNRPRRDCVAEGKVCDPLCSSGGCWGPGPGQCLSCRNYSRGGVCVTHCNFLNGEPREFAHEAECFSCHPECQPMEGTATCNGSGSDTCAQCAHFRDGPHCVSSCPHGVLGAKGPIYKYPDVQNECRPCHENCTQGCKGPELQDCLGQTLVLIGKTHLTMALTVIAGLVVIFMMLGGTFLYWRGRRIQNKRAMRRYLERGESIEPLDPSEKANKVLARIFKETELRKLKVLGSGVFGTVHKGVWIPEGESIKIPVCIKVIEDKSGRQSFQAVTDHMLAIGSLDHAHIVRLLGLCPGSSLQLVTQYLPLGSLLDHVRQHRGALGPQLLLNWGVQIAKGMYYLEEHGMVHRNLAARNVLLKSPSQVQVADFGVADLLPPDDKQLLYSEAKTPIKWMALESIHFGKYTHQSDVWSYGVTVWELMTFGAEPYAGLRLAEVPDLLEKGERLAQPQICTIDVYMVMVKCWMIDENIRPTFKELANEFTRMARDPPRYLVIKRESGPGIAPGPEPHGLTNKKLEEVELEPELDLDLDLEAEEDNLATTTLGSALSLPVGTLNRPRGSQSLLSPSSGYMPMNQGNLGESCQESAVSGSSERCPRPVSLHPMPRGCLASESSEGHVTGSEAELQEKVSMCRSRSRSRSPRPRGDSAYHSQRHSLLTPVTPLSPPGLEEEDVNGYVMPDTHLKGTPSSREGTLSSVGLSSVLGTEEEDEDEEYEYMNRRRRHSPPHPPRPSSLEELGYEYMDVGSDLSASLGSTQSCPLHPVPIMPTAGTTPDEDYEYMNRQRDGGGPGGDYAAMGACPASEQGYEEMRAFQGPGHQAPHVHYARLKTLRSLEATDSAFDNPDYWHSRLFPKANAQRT

One assay addresses HER3 (antigen in the SPR measurements) (UniProt P21860 20-643, limits assumed). Nature of the assay: SPR. (In SPR one partner is held on a chip, and binding of the other changes the refractive index at the surface.)
For orientation: Kd means the constant that tells how readily two partners part at equilibrium. Higher therefore signals lower affinity. Broadly, the koff is the rate constant with which the complex falls apart. A low value points to slow dissociation. In general, kon refers to a measure of how fast the partners come together. Consider B1, for which the Kd came to 2.34 nM, the off-rate (koff) is 0.000372 s⁻¹ and the on-rate (kon) turned out to be 159000 M⁻¹ s⁻¹.

Molecule B2 yielded a Kd of 1.92 nM, a koff of 0.000324 s⁻¹ and an on-rate (kon) of 169000 M⁻¹ s⁻¹.

B3: the Kd came out at 1.85 nM, the off-rate constant (koff) was determined as 0.000327 s⁻¹ and the kon came out at 177000 M⁻¹ s⁻¹.

Another assay addresses T1, cMet (antigen in the SPR measurements) (UniProt P08581 25-932, limits assumed). Briefly: SPR.
For B4, the off-rate (koff) worked out at 0.00015 s⁻¹ and the kon amounted to 21200 M⁻¹ s⁻¹.

As to B5, binding was characterised by a dissociation constant (Kd) of 88.6 nM, the koff was determined as 0.000263 s⁻¹ and the kon came out at 2970 M⁻¹ s⁻¹.

B1 returned a Kd of 20 nM, a koff of 0.000193 s⁻¹ and a kon of 9670 M⁻¹ s⁻¹.

In the case of B6, the koff turned out to be 0.000374 s⁻¹ and the kon came to 151 M⁻¹ s⁻¹.

The molecule B2 displayed a Kd of 114 nM, an off-rate (koff) of 0.000417 s⁻¹ and an on-rate constant (kon) of 3650 M⁻¹ s⁻¹.

In turn, B3 registered a Kd of 7.14 nM, an off-rate constant (koff) of 0.000141 s⁻¹ and an on-rate (kon) of 19700 M⁻¹ s⁻¹.

On to B7, for which the Kd is 5.2 nM, the dissociation rate constant (koff) worked out at 0.000105 s⁻¹ and the kon was determined as 20100 M⁻¹ s⁻¹.

In another assay the target is T1, cMet (antigen in the SPR measurements). Nature of the assay: SPR, cleaved against restricted form.
In the case of B4, the “fold improvement of affinity by MMP processing” value (from here on “fold improvement of affinity”) was greater than 5 fold.

As for B3, the “fold improvement of affinity” value was greater than 5 fold.

Take B7: the “fold improvement of affinity” value is greater than 5 fold.

Another assay has the same target. Nature of the assay: SPR; not cleaved; dsFv sterically restricted.
For the molecule B6, the dissociation constant (Kd) is 2480 nM.

The next assay shares this target. Briefly: SPR, KD uncleaved against KD after protease cleavage.
Consider B5, for which the “reduced binding affinity as compared to after the protease cleavage” value (“reduced binding affinity” for short) is 17 times.

Turning to B1, the “reduced binding affinity” value stood at 6 times.

As to B6, the “reduced binding affinity” value is 350 times.

Regarding B2, the “reduced binding affinity” value came out at 16 times.

The next assay has the same target. Briefly: SPR; after protease (MMP2/9) cleavage; dsFv unleashed.
Regarding B4, binding was characterised by a dissociation constant (Kd) of 7.08 nM.

Another assay addresses T2, Her3 on Her3-expressing, cMet negative T47D cells / Her3-positive cancer cells (UniProt P21860 20-1342, limits assumed).
T2 construct: whole, on cells
Nature of the assay: FACS on live T47D cells (cMet-/Her3+); x axis fluorescence (log), y axis % of Max; antibody concentration not shown.
Consider B8, for which the binding result is on record as “binds”.
